Experimental data: the supplement of paper PMC10065799, “High-throughput profiling of sequence recognition by tyrosine kinases and SH2 domains using bacterial peptide display” (eLife, 2023)

Tests used:
Hck = Hck (UniProt P08631); experiment: phosphorylation enrichment, bacterial display (enrichment ratio); higher = better substrate or ligand; peptides without Tyr show the background
FGFR1 = FGFR1 (UniProt P11362); experiment: as above
c-Abl (mouse) = experiment: as above
Fer (mouse) = experiment: as above
Jak2 = Jak2 (UniProt O60674); experiment: as above
EPHB2 = EPHB2 (UniProt P29323); experiment: as above
Fyn = Fyn (UniProt P06241); experiment: as above
Fes = Fes (UniProt P07332); experiment: as above
FGFR3 = FGFR3 (UniProt P22607); experiment: as above
AncSZ = experiment: as above
c-Src = experiment: as above
EPHB1 = EPHB1 (UniProt P54762); experiment: as above
MERTK = MERTK (UniProt Q12866); experiment: as above
SHP2-C SH2 = experiment: SH2 binding enrichment of the phosphorylated peptide, bacterial display (enrichment ratio); higher = better substrate or ligand; peptides without Tyr show the background
c-Src SH2 = experiment: as above
Grb2 SH2 = Grb2 SH2 (UniProt P62993); experiment: as above
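For SH2 binding enrichment of the phosphorylated peptide, bacterial display in this document: peptide library displayed on the E. coli surface as eCPX fusions, selected cells deep-sequenced, score is each peptide's frequency after selection divided by its frequency in the input.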
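For phosphorylation enrichment, bacterial display in this document: 11-residue human phosphosite peptides and single-mutation variants displayed on the E. coli surface, counted by deep sequencing, each peptide's frequency after selection divided by its frequency in the unselected input library; frequency after pTyr selection over input frequency; kinase dosed for 20-30% of maximal phosphorylation in three min.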

EPHB1, sequence (P54762 whole entry, looked up): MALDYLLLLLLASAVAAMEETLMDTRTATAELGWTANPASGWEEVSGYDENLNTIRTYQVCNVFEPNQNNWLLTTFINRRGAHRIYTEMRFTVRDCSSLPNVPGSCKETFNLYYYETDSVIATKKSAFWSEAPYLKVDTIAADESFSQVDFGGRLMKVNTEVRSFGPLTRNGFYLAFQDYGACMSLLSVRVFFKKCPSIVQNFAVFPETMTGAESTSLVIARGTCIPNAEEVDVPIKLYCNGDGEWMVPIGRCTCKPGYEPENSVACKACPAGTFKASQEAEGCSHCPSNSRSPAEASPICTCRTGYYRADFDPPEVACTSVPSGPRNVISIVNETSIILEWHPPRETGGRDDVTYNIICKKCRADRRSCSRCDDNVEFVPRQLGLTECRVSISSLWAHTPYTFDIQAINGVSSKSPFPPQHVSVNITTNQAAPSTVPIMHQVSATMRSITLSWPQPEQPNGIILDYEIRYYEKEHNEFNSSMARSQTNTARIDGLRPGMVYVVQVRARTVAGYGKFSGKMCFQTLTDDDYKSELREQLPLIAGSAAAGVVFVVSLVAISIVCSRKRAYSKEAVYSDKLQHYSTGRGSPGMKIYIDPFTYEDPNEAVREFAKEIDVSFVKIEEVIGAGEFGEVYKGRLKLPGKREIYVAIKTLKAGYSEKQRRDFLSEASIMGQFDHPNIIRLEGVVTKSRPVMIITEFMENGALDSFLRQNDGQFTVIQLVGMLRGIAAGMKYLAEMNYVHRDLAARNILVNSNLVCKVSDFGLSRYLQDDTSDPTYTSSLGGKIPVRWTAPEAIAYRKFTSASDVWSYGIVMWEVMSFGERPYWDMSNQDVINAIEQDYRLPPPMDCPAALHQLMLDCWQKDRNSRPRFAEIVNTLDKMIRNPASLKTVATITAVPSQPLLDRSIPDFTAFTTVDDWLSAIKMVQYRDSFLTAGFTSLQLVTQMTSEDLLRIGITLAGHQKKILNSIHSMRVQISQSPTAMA
Jak2, sequence (O60674 whole entry, looked up): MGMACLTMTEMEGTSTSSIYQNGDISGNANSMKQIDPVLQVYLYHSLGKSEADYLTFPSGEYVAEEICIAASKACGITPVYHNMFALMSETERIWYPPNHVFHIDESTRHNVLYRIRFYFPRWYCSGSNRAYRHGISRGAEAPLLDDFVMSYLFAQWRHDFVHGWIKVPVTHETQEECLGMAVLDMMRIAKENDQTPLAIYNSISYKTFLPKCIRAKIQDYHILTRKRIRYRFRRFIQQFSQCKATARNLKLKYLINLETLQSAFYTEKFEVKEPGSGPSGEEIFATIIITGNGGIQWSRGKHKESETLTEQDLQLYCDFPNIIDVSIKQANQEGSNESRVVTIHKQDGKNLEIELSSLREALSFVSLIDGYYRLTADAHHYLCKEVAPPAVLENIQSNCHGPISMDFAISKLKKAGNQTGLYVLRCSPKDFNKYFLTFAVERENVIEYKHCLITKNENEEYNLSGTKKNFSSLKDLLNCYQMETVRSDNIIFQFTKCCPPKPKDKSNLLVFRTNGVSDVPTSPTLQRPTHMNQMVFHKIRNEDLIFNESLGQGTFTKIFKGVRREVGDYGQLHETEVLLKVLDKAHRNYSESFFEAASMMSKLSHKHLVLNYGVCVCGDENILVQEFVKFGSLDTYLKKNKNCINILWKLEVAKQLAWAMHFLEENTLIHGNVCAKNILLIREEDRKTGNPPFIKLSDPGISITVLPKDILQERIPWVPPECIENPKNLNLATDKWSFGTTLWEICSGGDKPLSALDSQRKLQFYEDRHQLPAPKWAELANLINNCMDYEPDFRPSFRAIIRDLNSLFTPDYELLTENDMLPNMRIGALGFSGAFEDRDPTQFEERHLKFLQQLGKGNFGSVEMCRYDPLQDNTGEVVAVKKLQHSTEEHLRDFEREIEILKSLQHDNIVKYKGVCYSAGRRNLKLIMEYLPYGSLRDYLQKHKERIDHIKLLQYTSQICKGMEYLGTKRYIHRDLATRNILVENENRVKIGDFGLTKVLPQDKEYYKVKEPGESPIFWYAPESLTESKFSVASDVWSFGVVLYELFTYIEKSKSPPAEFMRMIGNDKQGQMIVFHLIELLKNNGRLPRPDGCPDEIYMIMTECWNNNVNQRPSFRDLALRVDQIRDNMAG
Fes, sequence (P07332 whole entry, looked up): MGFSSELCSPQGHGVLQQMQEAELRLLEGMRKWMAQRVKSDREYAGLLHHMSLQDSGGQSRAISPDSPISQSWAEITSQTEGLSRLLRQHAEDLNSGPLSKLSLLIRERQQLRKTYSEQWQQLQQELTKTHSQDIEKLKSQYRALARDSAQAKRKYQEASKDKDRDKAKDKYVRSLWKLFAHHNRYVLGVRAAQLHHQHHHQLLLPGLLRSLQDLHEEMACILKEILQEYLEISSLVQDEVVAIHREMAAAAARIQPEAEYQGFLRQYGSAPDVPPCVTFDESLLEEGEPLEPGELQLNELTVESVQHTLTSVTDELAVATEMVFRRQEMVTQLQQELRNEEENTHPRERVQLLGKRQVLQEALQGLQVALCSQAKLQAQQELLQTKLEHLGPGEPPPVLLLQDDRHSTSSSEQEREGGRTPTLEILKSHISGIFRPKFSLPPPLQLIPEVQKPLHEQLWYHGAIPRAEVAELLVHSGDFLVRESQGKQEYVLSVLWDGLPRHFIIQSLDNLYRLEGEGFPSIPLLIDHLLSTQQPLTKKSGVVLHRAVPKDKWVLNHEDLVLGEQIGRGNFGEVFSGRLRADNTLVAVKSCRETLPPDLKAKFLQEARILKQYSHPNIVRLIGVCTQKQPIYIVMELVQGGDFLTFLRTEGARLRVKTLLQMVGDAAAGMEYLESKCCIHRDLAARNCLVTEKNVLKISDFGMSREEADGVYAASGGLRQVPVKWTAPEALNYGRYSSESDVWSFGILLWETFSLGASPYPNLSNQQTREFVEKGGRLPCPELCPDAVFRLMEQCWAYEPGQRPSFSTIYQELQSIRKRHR
FGFR1, sequence (P11362 whole entry, looked up): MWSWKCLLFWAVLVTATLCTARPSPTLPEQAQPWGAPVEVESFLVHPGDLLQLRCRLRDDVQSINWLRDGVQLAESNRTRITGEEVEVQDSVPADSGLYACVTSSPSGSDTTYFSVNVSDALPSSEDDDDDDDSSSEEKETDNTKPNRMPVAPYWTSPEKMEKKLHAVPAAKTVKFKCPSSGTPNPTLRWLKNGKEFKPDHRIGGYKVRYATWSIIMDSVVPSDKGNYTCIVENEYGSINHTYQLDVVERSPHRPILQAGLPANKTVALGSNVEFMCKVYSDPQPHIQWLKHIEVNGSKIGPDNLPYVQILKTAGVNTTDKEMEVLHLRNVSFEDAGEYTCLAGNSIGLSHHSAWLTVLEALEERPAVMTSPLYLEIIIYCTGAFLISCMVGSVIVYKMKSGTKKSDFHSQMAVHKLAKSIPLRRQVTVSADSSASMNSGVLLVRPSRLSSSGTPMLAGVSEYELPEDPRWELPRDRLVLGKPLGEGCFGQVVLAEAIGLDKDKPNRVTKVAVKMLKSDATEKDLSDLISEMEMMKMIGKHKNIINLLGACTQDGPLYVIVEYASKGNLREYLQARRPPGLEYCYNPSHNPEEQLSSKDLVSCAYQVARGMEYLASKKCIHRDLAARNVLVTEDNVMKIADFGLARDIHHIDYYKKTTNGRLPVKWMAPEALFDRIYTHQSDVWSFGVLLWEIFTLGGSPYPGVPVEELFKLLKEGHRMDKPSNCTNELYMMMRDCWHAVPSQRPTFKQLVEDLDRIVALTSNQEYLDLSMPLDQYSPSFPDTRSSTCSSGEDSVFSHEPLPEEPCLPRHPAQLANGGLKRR
FGFR3, sequence (P22607 whole entry, looked up): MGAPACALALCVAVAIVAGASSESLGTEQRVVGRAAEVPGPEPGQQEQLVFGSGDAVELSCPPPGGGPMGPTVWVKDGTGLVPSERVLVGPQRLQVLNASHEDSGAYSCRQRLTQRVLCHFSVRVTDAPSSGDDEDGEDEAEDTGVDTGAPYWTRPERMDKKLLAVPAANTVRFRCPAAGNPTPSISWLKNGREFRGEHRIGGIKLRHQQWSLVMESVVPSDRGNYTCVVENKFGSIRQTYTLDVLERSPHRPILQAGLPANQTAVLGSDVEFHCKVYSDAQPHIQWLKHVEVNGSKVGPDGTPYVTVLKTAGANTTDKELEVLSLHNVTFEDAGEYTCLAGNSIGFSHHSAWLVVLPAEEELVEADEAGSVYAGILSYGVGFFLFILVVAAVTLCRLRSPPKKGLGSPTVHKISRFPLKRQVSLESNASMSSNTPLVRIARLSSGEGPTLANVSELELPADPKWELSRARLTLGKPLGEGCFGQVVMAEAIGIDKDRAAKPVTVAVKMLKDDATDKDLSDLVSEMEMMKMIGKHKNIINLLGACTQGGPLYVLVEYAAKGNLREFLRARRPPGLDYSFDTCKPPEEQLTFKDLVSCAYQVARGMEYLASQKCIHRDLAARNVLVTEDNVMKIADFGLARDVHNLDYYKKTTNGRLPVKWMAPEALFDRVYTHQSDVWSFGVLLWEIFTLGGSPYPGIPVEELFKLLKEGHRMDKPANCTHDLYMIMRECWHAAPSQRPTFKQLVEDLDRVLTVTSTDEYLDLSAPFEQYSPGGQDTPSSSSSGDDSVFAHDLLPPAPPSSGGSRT
Hck, sequence (P08631 whole entry, looked up): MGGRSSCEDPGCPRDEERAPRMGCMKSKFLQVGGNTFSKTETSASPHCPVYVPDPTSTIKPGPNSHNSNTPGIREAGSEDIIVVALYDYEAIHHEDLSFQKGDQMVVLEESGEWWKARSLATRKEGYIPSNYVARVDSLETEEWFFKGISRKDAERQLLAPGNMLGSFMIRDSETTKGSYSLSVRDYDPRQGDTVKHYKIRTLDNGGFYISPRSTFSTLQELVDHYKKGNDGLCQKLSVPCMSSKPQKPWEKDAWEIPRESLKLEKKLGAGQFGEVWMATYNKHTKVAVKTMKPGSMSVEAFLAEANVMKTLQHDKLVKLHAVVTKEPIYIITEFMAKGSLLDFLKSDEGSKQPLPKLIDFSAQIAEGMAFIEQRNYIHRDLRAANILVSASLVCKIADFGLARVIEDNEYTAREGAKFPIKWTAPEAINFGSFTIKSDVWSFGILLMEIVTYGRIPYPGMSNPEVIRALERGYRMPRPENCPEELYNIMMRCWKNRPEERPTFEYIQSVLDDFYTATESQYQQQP

| SH2 binding enrichment (SHP2-C SH2) | SH2 binding enrichment (c-Src SH2) | SH2 binding enrichment (Grb2 SH2) | Sequence | phosphorylation enrichment (Hck) | phosphorylation enrichment (FGFR1) | phosphorylation enrichment (c-Abl (mouse)) | phosphorylation enrichment (Fer (mouse)) | phosphorylation enrichment (Jak2) | phosphorylation enrichment (EPHB2) | phosphorylation enrichment (Fyn) | phosphorylation enrichment (Fes) | phosphorylation enrichment (FGFR3) | phosphorylation enrichment (AncSZ) | phosphorylation enrichment (c-Src) | phosphorylation enrichment (EPHB1) | phosphorylation enrichment (MERTK) |
| --- | --- | --- | --- | --- | --- | --- | --- | --- | --- | --- | --- | --- | --- | --- | --- | --- |
| 1.09 | 1.46 | 1.54 | RFLERYIFNRE [HLA-DPB1_Y57_YF] | 0.44 | 0.329 | 0.627 | 0.356 | 0.748 | 0.363 | 0.311 | 0.914 | 0.543 | 0.786 | 0.432 | 0.324 | 0.409 |
| 0.427 | 0.425 | 0.997 | PKGTGYIKTES [STAT1_Y701_L706S] | 0.525 | 0.604 | 0.868 | 0.392 | 1.22 | 0.449 | 0.466 | 1.2 | 0.487 | 0.588 | 0.601 | 0.504 | 0.553 |
| 0.648 | 0.459 | 0.784 | FHKALYTVRSF [PDE6C_Y266_YF] | 0.557 | 0.462 | 0.666 | 0.394 | 0.674 | 0.489 | 0.43 | 0.942 | 0.549 | 0.708 | 0.389 | 0.612 | 0.378 |
| 0.874 | 1.05 | 0.913 | KHCEDYVCSYN [DSC1_Y846] | 0.555 | 0.627 | 0.771 | 0.506 | 0.93 | 0.578 | 0.502 | 1.23 | 0.662 | 1.14 | 1.36 | 0.63 | 0.398 |
| 0.79 | 0.582 | 0.911 | ALVDTYCRHNY [HLA-DRB1_Y107_A103L] | 0.549 | 0.401 | 0.515 | 0.442 | 0.456 | 0.486 | 0.46 | 0.709 | 0.501 | 0.474 | 0.432 | 0.439 | 0.618 |
| 0.651 | 0.531 | 1.13 | KLKRSYSSRDI [USP8_Y717_P720R] | 0.327 | 0.289 | 0.51 | 0.371 | 0.51 | 0.409 | 0.329 | 0.464 | 0.368 | 0.45 | 0.458 | 0.351 | 0.432 |
| 0.64 | 1.08 | 0.724 | MAFDRYVAICS [OR8D4_Y123_C120Y_YF] | 0.665 | 0.463 | 0.78 | 0.563 | 1.07 | 0.762 | 0.515 | 1.14 | 0.726 | 1.15 | 0.489 | 0.905 | 0.507 |
| 0.793 | 0.514 | 0.752 | MGCVNYGAFIN [GLB1_Y485_R482C_YF] | 0.532 | 0.531 | 1.01 | 0.522 | 1.14 | 0.617 | 0.553 | 1.26 | 0.825 | 1.05 | 1.19 | 0.69 | 0.606 |
| 0.95 | 0.886 | 0.989 | RAIGFYSATSK [FAM120A_Y328_YF] | 0.774 | 0.545 | 1.26 | 0.911 | 0.889 | 0.81 | 0.685 | 1.03 | 0.805 | 1.51 | 0.59 | 0.46 | 1.03 |
| 0.656 | 0.456 | 0.767 | GRPMDYQVSIT [OTOF_Y254] | 0.417 | 0.473 | 0.662 | 0.508 | 0.727 | 0.624 | 0.403 | 0.775 | 0.51 | 0.812 | 0.449 | 0.517 | 0.416 |
| 0.801 | 1.13 | 0.828 | VCRHNYGVVES [HLA-DRB1_Y112_Y107V] | 0.484 | 0.547 | 0.543 | 0.428 | 0.659 | 1.5 | 0.398 | 0.793 | 0.566 | 0.768 | 0.361 | 0.82 | 0.484 |
| 1.25 | 1.65 | 1.78 | CRPPYYHRNCM [HGD_Y334_F329C] | 0.761 | 0.617 | 0.743 | 0.458 | 0.992 | 0.556 | 0.565 | 0.856 | 0.628 | 0.837 | 0.452 | 0.436 | 0.515 |
| 0.591 | 0.646 | 1.12 | HQEPVCSVAFS [TBL1X_Y509_Y509C] | 0.69 | 1.12 | 1.09 | 0.874 | 1.17 | 0.654 | 0.658 | 2.01 | 1.1 | 1.07 | 0.794 | 0.804 | 0.791 |
| 0.884 | 0.606 | 1.28 | PVFIKYLPEWT [PSEN1_Y240_L235P] | 0.519 | 0.515 | 1.07 | 0.759 | 1.62 | 0.715 | 0.447 | 1.68 | 1.04 | 1.45 | 0.626 | 0.64 | 0.475 |
| 0.799 | 0.677 | 0.881 | EWQQTYTFDSG [JUP_Y20_YF] | 0.78 | 0.965 | 0.546 | 0.425 | 1.02 | 0.485 | 3.03 | 0.904 | 1.02 | 1.06 | 5.44 | 0.494 | 0.668 |
| 0.544 | 0.466 | 0.481 | FSQETYFRVSN [ABCD1_Y180_Q178E_YF] | 0.868 | 1.64 | 0.661 | 0.45 | 3 | 0.706 | 0.592 | 1.1 | 1.23 | 1 | 1.51 | 1.08 | 0.74 |
| 0.794 | 0.521 | 0.651 | PLDGEYFILQI [TP53_Y327_T329I] | 1.88 | 14.5 | 1.24 | 0.978 | 2.88 | 2.04 | 3.7 | 2 | 12.9 | 4.19 | 2.88 | 2.02 | 1.22 |
| 0.776 | 0.728 | 0.801 | KVKEQYQDVPM [PKP2_Y659] | 0.48 | 0.509 | 0.603 | 0.36 | 0.632 | 0.431 | 0.446 | 0.717 | 0.48 | 0.667 | 0.395 | 0.455 | 0.401 |
| 0.598 | 1.02 | 0.98 | AGREEYSAMRD [KRAS_Y64_Q61R] | 0.508 | 0.472 | 0.655 | 0.453 | 0.686 | 0.546 | 0.479 | 0.834 | 0.575 | 0.787 | 0.421 | 0.506 | 0.425 |

Further lines, the sequence ahead of its results:

| Sequence | SH2 binding enrichment (SHP2-C SH2) | SH2 binding enrichment (c-Src SH2) | SH2 binding enrichment (Grb2 SH2) | phosphorylation enrichment (Hck) | phosphorylation enrichment (FGFR1) | phosphorylation enrichment (c-Abl (mouse)) | phosphorylation enrichment (Fer (mouse)) | phosphorylation enrichment (Jak2) | phosphorylation enrichment (EPHB2) | phosphorylation enrichment (Fyn) | phosphorylation enrichment (Fes) | phosphorylation enrichment (FGFR3) | phosphorylation enrichment (AncSZ) | phosphorylation enrichment (c-Src) | phosphorylation enrichment (EPHB1) | phosphorylation enrichment (MERTK) |
| --- | --- | --- | --- | --- | --- | --- | --- | --- | --- | --- | --- | --- | --- | --- | --- | --- |
| IDAVCYFRMEN [NPHS2_Y194_I192V_YF] | 0.607 | 0.545 | 0.764 | 0.903 | 0.986 | 1.5 | 0.641 | 2.74 | 0.763 | 0.653 | 1.99 | 1.34 | 1.79 | 0.873 | 0.788 | 0.715 |
| ADCRYYTFPQM [GAMT_Y223_A224T] | 1.34 | 3.2 | 1.05 | 3.29 | 10.9 | 1.99 | 4.67 | 4.44 | 2.84 | 3.97 | 0.998 | 7.83 | 3.09 | 4.77 | 4.67 | 9.97 |
| DEEDFYQGSME [ASCC1_Y36] | 0.575 | 0.427 | 0.572 | 0.654 | 0.549 | 0.889 | 0.798 | 1.54 | 0.595 | 0.598 | 1.54 | 0.953 | 1.46 | 0.603 | 0.761 | 0.524 |
| MVIPNYSSRTE [UROC1_Y185] | 0.488 | 0.55 | 0.711 | 0.329 | 0.406 | 0.438 | 0.435 | 0.486 | 0.462 | 0.406 | 0.642 | 0.416 | 0.535 | 0.446 | 0.477 | 0.425 |
| PDDPSYSLVDD [PSTPIP2_Y323_N322S] | 0.724 | 3.29 | 1.29 | 0.679 | 0.899 | 1.03 | 0.728 | 1.75 | 0.8 | 0.885 | 1.53 | 1.08 | 1.6 | 0.91 | 0.999 | 0.563 |
| FGGTVYHSPVS [PRC1_Y511] | 2.81 | 1.72 | 0.851 | 0.851 | 0.473 | 3.96 | 0.434 | 0.555 | 0.418 | 0.588 | 0.687 | 0.525 | 0.894 | 0.771 | 0.535 | 0.444 |
| FEHVGYTTLNR [CHN1_Y148_YF] | 18.8 | 5.21 | 0.917 | 0.602 | 0.426 | 0.68 | 0.445 | 0.527 | 0.395 | 0.448 | 0.805 | 0.458 | 0.654 | 0.466 | 0.393 | 0.406 |
| FGISGYLVDSV [MAP2K3_Y214] | 0.883 | 0.656 | 0.949 | 0.471 | 0.478 | 0.722 | 0.529 | 0.97 | 0.501 | 0.467 | 1.2 | 0.631 | 0.982 | 0.504 | 0.377 | 0.459 |
| GNLLIYTELGK [HGD_Y166_F169L] | 0.478 | 0.381 | 0.756 | 5.3 | 1.29 | 2.29 | 0.986 | 1.21 | 2.57 | 5.68 | 1.43 | 1.19 | 1.46 | 4.74 | 3.98 | 4.86 |
| ERDYTYEELLN [EIF2S2_Y176] | 0.737 | 1.1 | 0.823 | 1.32 | 0.579 | 0.67 | 0.65 | 1.18 | 0.718 | 0.886 | 1.28 | 0.855 | 1.31 | 0.807 | 0.78 | 0.426 |
| RTCSSYTIEKI [PARP15_Y520_A521T] | 0.739 | 0.59 | 0.813 | 0.726 | 0.475 | 0.84 | 0.502 | 1.13 | 0.474 | 0.638 | 1.51 | 1.18 | 0.937 | 0.544 | 0.608 | 0.533 |
| KTVQDYLKKFF [MMP8_Y36_E38K_YF] | 0.56 | 0.42 | 0.649 | 0.494 | 0.523 | 0.66 | 0.563 | 0.795 | 0.371 | 0.575 | 1.05 | 0.545 | 1.07 | 0.488 | 0.473 | 0.494 |
| RRESQYQENRG [LRCH3_Y354] | 0.624 | 0.49 | 0.982 | 0.503 | 0.479 | 0.73 | 0.563 | 0.582 | 0.494 | 0.637 | 0.571 | 0.663 | 0.835 | 0.475 | 0.431 | 0.472 |
| RLEGVYRNNID [PTEN_Y46] | 0.588 | 0.398 | 0.948 | 0.389 | 0.293 | 1.35 | 0.849 | 0.751 | 0.578 | 0.675 | 0.889 | 0.703 | 0.553 | 0.561 | 0.478 | 0.291 |
